Values quoted from earlier work in publication PMC3514653 (Neuromodulation : journal of the International …, 2012).

Settings: dog, in vivo; cited from earlier work

B1: BDNF: large growth factor (27 KDa); recombinant-methionyl human brain-derived neurotrophic factor (protein, UniProt P23560 19-247, looked up)
Neurotrophic factor BDNF …: APMKEANIRGQGGLAYPGVRTHGTLESVNGPKAGSRGLTSLADTFEHVIEELLDEDQKVRPNEENNKDADLYTSRVMLSSQVPLEPPLLFLLEEYKNYLDAANMSMRVRRHSDPARRGELSVCDSISEWVTAADKKTAVDMSGGTVTVLEKVPVSKGQLKQYFYETKCNPMGYTKEGCRGIDKRHWNSQCRTTQSYVRALTMDSKKRIGWRFIRIDTSCVCTLTIKRGR
modifications: N-terminal methionine
  Clearance from the CSF (half-life): 42 min
